The RNAGym collection of RNA variant scans (doi:10.7554/elife.80360)

B1: Hammerhead Ribozyme (parent)
chain: ACCGGAUGUGCUUUCCGGUCUGAUGAGUCCGUGAGGACGAAACAG

Variants of: B1
Test: self-cleavage, relative activity (ratio to wild type); higher = more cleavage; co-transcriptional

Row | Variant | self-cleavage
1 | ACCGGGUGUGCUUUCCAGUCUGAUGAGUCCGUGAGGACGAAACAG [A6G G17A] | 0.389
2 | ACAGGAUGUGCUUUCCGGUCUGAUGAGUCCGUGAGGACGAACCAG [C3A A42C] | 0.313
3 | ACCGGAUGUGCUUUCCGGUCUGAUGAGGCCGUGAGCACGAAACAG [U28G G36C] | 0.317
4 | ACCGGAUGUGCUUUCCGGGCUGAUGAGUCCGUCAGGACGAAACAG [U19G G33C] | 0.426
5 | ACCGGAUGUGCUUUCCGGUCAGAUGAGUACGUGAGGACGAAACAG [U21A C29A] | 0.31
6 | ACCGGAUGUGCUUUCCGGUCUGAUGAGUCCGUGAGAAGGAAACAG [G36A C38G] | 0.342
7 | ACCGGAUGUGCUUUCCGGUCUGAAGAGUCCGUGAUGACGAAACAG [U24A G35U] | 0.791
8 | ACCGGAUGUGCUUUCCGGUCUGAUGAGUCCGUGAUGACCAAACAG [G35U G39C] | 0.344
9 | ACCGGAUGUGCUUUCCGGUCUGAUGAGUCCGUGAUGACUAAACAG [G35U G39U] | 0.42
10 | ACCGGAUGUGCUUUCCGGUCUGAUGAGUCCGGGAGGACGAAACCG [U32G A44C] | 0.424
11 | ACCGGAUGAGCUUUCCGGUCUGAUGAGUCCGUGAGGACAAAACAG [U9A G39A] | 0.307
12 | ACCGGAUGUUCUUUCCGGUCUGAUGAGUCCUUGAGGACGAAACAG [G10U G31U] | 0.736
13 | ACCGGAUGUGCUUUCCGGUCUGAUGGGUCCCUGAGGACGAAACAG [A26G G31C] | 0.324
14 | ACCGGAUGUUCUUUCGGGUCUGAUGAGUCCGUGAGGACGAAACAG [G10U C16G] | 1.01
15 | ACCGGAAGUGCUUUCCGGUCUGAUGAGACCGUGAGGACGAAACAG [U7A U28A] | 0.77
16 | ACGGGAUGUGCUUUCCGGUCUCAUGAGUCCGUGAGGACGAAACAG [C3G G22C] | 0.292
17 | ACUGGAUGUGCUUUCCGGUCUGAUGAGUCCGUGAGGACGAACCAG [C3U A42C] | 0.406
18 | ACCGGAUGAGCUUUCCGGUCUGAUGAGUCCGUGAGGACGAAACGG [U9A A44G] | 1.46
19 | ACCGGAUGUGCUUUCCCGUAUGAUGAGUCCGUGAGGACGAAACAG [G17C C20A] | 0.313

Row | Variant | self-cleavage
20 | ACCGGAUGUGCUUUCGGGUCUGAUGAGUCCGUGAGGACGAAACAA [C16G G45A] | 0.533
21 | ACCGGAUGUGCUUGCCGGUCUGAUGAGCCCGUGAGGACGAAACAG [U14G U28C] | 0.602
22 | UCCGGAUGUGUUUUCCGGUCUGAUGAGUCCGUGAGGACGAAACAG [A1U C11U] | 0.423
23 | ACCGGAAGUGCUUUCCGGUCUGAUGAGUCCGUGAGGUCGAAACAG [U7A A37U] | 0.497
24 | ACCGGAUGUGCUUUCCGGUCUGAUGAGUCCGUGGGGACAAAACAG [A34G G39A] | 0.288
25 | ACCGGAUGUGCUUUCCGGUCUGAUGAGUCCGUUAGGAGGAAACAG [G33U C38G] | 0.67
26 | AUCGGAUGUGCUUUCCGGUCUGAUGAGUCCGUGAGGACGAAACUG [C2U A44U] | 0.646
27 | ACCGGAUGUGCUUUGCGGUCUGAUGAGUCGGUGAGGACGAAACAG [C15G C30G] | 0.618
28 | ACCGGUUGUGCUUUCCGGUCUGACGAGUCCGUGAGGACGAAACAG [A6U U24C] | 0.573
29 | ACCGUAUGUGCUUUCCGGUCUGAUGAGUCCGUGAGGACGAGACAG [G5U A41G] | 0.316
30 | ACCGGAUGUGCUUUCCGGUCUGAUGAGUCCCUGAGGACUAAACAG [G31C G39U] | 0.373
31 | ACCGGAUGUGCUUUCCGGCCUGAUGAGACCGUGAGGACGAAACAG [U19C U28A] | 0.524
32 | ACCGGAUGUGCUUUCCGGUCGGAUGAGUCCGUUAGGACGAAACAG [U21G G33U] | 0.798
33 | ACCGGAUGUGCUUUCCGGUCUGAUGACUCCGUGAGGACGAAACAG [G27C] | 0.843
34 | ACCGGAUGUGCUUUCCGCUCUGAUGAGUCCGUGAGGACGAAGCAG [G18C A42G] | 0.372
35 | ACCGGAUGUGCUCUCCGGUCUGAUGAGUCCGUGAGGACGGAACAG [U13C A40G] | 0.465
36 | GCCGGAUGUGCUUUCCGGUCUGAUGAGUCCGUGAGGACGAAAAAG [A1G C43A] | 0.444
37 | ACCGGAUGUGCUUUCCGGUCUGAUGAGUUCGUGAGGACCAAACAG [C29U G39C] | 0.326
38 | ACCGGAUGUGCUUUUCGCUCUGAUGAGUCCGUGAGGACGAAACAG [C15U G18C] | 0.491

Row | Variant | self-cleavage
39 | ACCGGAUAUGCUUUCCGGUCUGAUGAGUCCGUGAGGACGACACAG [G8A A41C] | 0.353
40 | ACCAGAUGUGCUUUCCGGUCUGAUGACUCCGUGAGGACGAAACAG [G4A G27C] | 0.297
41 | ACCGGAUCUGCUUUCCGGUCUGAUGAGUCCGUGAGGACGAAACAA [G8C G45A] | 0.536
42 | ACCGGAUGUGCUUUCCGGUCUGAUGAGUCCGUGGGGACGAAACCG [A34G A44C] | 0.41
43 | ACCGGAUGUGCUUGCCGGUCUGAUUAGUCCGUGAGGACGAAACAG [U14G G25U] | 0.28
44 | ACCGGAUGUACUUUCCCGUCUGAUGAGUCCGUGAGGACGAAACAG [G10A G17C] | 0.61
45 | ACAGGAUGUGCUUUCCGGUCUGCUGAGUCCGUGAGGACGAAACAG [C3A A23C] | 0.352
46 | AUCGGAUGUGCUUUCCGGUCUGAUGAGGCCGUGAGGACGAAACAG [C2U U28G] | 0.7
47 | ACCGGAUGUCCUUGCCGGUCUGAUGAGUCCGUGAGGACGAAACAG [G10C U14G] | 0.606
48 | ACCGGAUGUGCUUUCCGGUCUGAUGAGGCCGUGAAGACGAAACAG [U28G G35A] | 0.384
49 | ACCGGACGUGCUUUCCUGUCUGAUGAGUCCGUGAGGACGAAACAG [U7C G17U] | 0.625
50 | ACCGGAUGCGCUUUCCGGUCUGAUGAAUCCGUGAGGACGAAACAG [U9C G27A] | 0.973
51 | ACCGGAGGUGCUUUCCGGUCUGAUGAGUCCGUGAGGACGAAACAC [U7G G45C] | 0.441
52 | ACCGGCUGUGCUUUCCGGUCUGAAGAGUCCGUGAGGACGAAACAG [A6C U24A] | 0.707
53 | ACCGGAUGUGCUUUCCUGGCUGAUGAGUCCGUGAGGACGAAACAG [G17U U19G] | 0.257
54 | ACCGGAUGUGCUCUCCGGUCUGAUGAGUCCGUGAGGACGAAACAC [U13C G45C] | 0.743
55 | ACCGGAUGUGCUUUCCGGUCAGAUGAGUCCUUGAGGACGAAACAG [U21A G31U] | 0.554
56 | ACCGGAUGUGCUUUCCGGUCUGAUGAGUCCUUGAGGACGAAACAC [G31U G45C] | 0.819
57 | ACCGGAUGUGCUUUCCGGUCUGAUGAAUCCGUGAGGACCAAACAG [G27A G39C] | 0.285
